From US20220290188

Legend:
Experiment in all cases: cell_activity
[1] = test system: TL11876 TALE-KRAB (synthetic); conditions: PD-1, day 2
[2] = test system: TL11112 TALE-KRAB (synthetic); conditions: PD-1, day 2
[3] = test system: TL9598 TALE-KRAB (synthetic); conditions: LAG3, day 2
[4] = test system: TL11099 TALE-KRAB (synthetic); conditions: PD-1, day 2
[5] = test system: TL8241 TALE-KRAB (synthetic); conditions: LAG3, day 2
[6] = test system: TL8189 TALE-KRAB (synthetic); conditions: TIM3, day 2
[7] = test system: TL9339 TALE-KRAB (synthetic); conditions: TIM3, day 2
[8] = test system: TL11102 TALE-KRAB (synthetic); conditions: PD-1, day 2
[9] = test system: TL11101 TALE-KRAB (synthetic); conditions: PD-1, day 2
[10] = test system: TL9342 TALE-KRAB (synthetic); conditions: TIM3, day 2
[11] = test system: TL11126 TALE-KRAB (synthetic); conditions: PD-1, day 2
[12] = test system: TL11124 TALE-KRAB (synthetic); conditions: PD-1, day 2
[13] = test system: TL11096 TALE-KRAB (synthetic); conditions: PD-1, day 2
[14] = test system: TL11106 TALE-KRAB (synthetic); conditions: PD-1, day 2
[15] = test system: TL11877 TALE-KRAB (synthetic); conditions: PD-1, day 2; table prints SEQ 63 but bases match SEQ 18
[16] = test system: TL11092 TALE-KRAB (synthetic); conditions: PD-1, day 2
[17] = test system: TL11129 TALE-KRAB (synthetic); conditions: PD-1, day 2
[18] = test system: TL11110 TALE-KRAB (synthetic); conditions: PD-1, day 2
[19] = test system: TL9606 TALE-KRAB (synthetic); conditions: LAG3, day 2
[20] = test system: TL9337 TALE-KRAB (synthetic); conditions: TIM3, day 2
[21] = test system: TL11132 TALE-KRAB (synthetic); conditions: PD-1, day 2
[22] = test system: TL11127 TALE-KRAB (synthetic); conditions: PD-1, day 2
[23] = test system: TL11119 TALE-KRAB (synthetic); conditions: PD-1, day 2
[24] = test system: TL11128 TALE-KRAB (synthetic); conditions: PD-1, day 2
[25] = test system: TL8181 TALE-KRAB (synthetic); conditions: TIM3, day 2
[26] = test system: TL11105 TALE-KRAB (synthetic); conditions: PD-1, day 2
[27] = test system: TL11093 TALE-KRAB (synthetic); conditions: PD-1, day 2
[28] = test system: TL8188 TALE-KRAB (synthetic); conditions: TIM3, day 2
[29] = test system: TL11087 TALE-KRAB (synthetic); conditions: PD-1, day 2
[30] = test system: TL11104 TALE-KRAB (synthetic); conditions: PD-1, day 2
[31] = test system: TL11103 TALE-KRAB (synthetic); conditions: PD-1, day 2
[32] = test system: TL8201 TALE-KRAB (synthetic); conditions: TIM3, day 2
[33] = test system: TL11879 TALE-KRAB (synthetic); conditions: PD-1, day 2
[34] = test system: TL9820 TALE-KRAB (synthetic); conditions: LAG3, day 2
[35] = test system: TL11088 TALE-KRAB (synthetic); conditions: PD-1, day 2
[36] = test system: TL11130 TALE-KRAB (synthetic); conditions: PD-1, day 2
[37] = test system: TL11875 TALE-KRAB (synthetic); conditions: PD-1, day 2
[38] = test system: pAL040 TALE-KRAB (synthetic); conditions: PD-1, day 2
[39] = test system: TL11133 TALE-KRAB (synthetic); conditions: PD-1, day 2
[40] = test system: TL8214 TALE-KRAB (synthetic); conditions: LAG3, day 2
[41] = test system: TL8220 TALE-KRAB (synthetic); conditions: LAG3, day 2
[42] = test system: TL9717 TALE-KRAB (synthetic); conditions: LAG3, day 2
[43] = test system: pAL043 (PD02) TALE-KRAB (synthetic); conditions: PD-1, day 2
[44] = test system: TL11084 TALE-KRAB (synthetic); conditions: PD-1, day 2
[45] = test system: TL11131 TALE-KRAB (synthetic); conditions: PD-1, day 2
[46] = test system: TL11094 TALE-KRAB (synthetic); conditions: PD-1, CD3+ T cells, day 2
[47] = test system: TL11108 TALE-KRAB (synthetic); conditions: PD-1, day 2
[48] = test system: TL8222 TALE-KRAB (synthetic); conditions: LAG3, day 2
[49] = test system: TL8216 TALE-KRAB (synthetic); conditions: LAG3, day 2

GACCTGGGACAGTTTCC (double strand) [TL11876 site]
activity [1]: > 80 % repression

CCCTTCAACCTGACCT (double strand) [TL11112 site]
activity [2]: > 80 % repression

TCTGCTGGTCTCTGGGCCTTC (double strand) [TL9598 site]
activity [3]: > 80 % repression

GCCGCCTTCTCCACT (double strand) [TL11099 site]
activity [4]: > 80 % repression

CTGTTCCCTGGGACACCCCC (double strand) [TL8241 site]
activity [5]: > 50 % repression

TGCCAGTGATTCTTATAGT (double strand) [TL8189 site]
activity [6]: > 80 % repression

TGTCTGATTGCCAGTGATT (double strand) [TL9339 site]
activity [7]: > 80 % repression

CCACTGCTCAGGCGGAGGT (double strand) [TL11102 site]
activity [8]: > 50 % repression

TCTCCACTGCTCAGGCG (double strand) [TL11101 site]
activity [9]: > 80 % repression

TGCCACACTACACACAT (double strand) [TL9342 site]
activity [10]: > 80 % repression

CACTCTCGCCCACGTGGAT (double strand) [TL11126 site]
activity [11]: > 50 % repression

CTCGCCCACGTGGATGTGG (double strand) [TL11124 site]
activity [12]: > 50 % repression

GGAGCAGCCCCACCAGAGT (double strand) [TL11096 site]
activity [13]: > 50 % repression

TTCCCTTCCGCTCACC (double strand) [TL11106 site]
activity [14]: > 80 % repression

CCCAGGTCAGGTTGAAG (double strand) [TL11877 site]
activity [15]: > 80 % repression

CTGCATGCCTGGAGCAG (double strand) [TL11092 site]
activity [16]: > 50 % repression

GCCTCTGTCACTCTCG (double strand) [TL11129 site]
activity [17]: > 80 % repression

CAACCTGACCTGGGACAGTT (double strand) [TL11110 site]
activity [18]: > 80 % repression

TGGTCTCTGGGCCTTCACCC (double strand) [TL9606 site]
activity [19]: > 80 % repression

TGGCAATCAGACACCCGGGTG (double strand) [TL9337 site]
activity [20]: > 80 % repression

CCTCCCCCAGCACTGC (double strand) [TL11132 site]
activity [21]: > 80 % repression

CTGTCACTCTCGCCCACGT (double strand) [TL11127 site]
activity [22]: > 50 % repression

GCTCCCGCCCCCTCTTCCT (double strand) [TL11119 site]
activity [23]: > 50 % repression

GCCTCTGTCACTCTCGCCC (double strand) [TL11128 site]
activity [24]: > 80 % repression

ACTTCTTCCAACTGT (double strand) [TL8181 site]
activity [25]: > 50 % repression

CCCTTCCGCTCACCTCCGC (double strand) [TL11105 site]
activity [26]: > 80 % repression

GGGGCTGCTCCAGGCATGC (double strand) [TL11093 site]
activity [27]: > 50 % repression

GGCAGTGTTACTATAA (double strand) [TL8188 site]
activity [28]: > 80 % repression

CCTCCACATCCACGTGGGC (double strand) [TL11087 site]
activity [29]: > 50 % repression

TCCGCTCACCTCCGCCTGA (double strand) [TL11104 site]
activity [30]: > 80 % repression

GCTCAGGCGGAGGTGAG (double strand) [TL11103 site]
activity [31]: > 50 % repression

GAGAAAATTGTATTAGAT (double strand) [TL8201 site]
activity [32]: > 50 % repression

CTTCCTCCACATCCACG (double strand) [TL11879 site]
activity [33]: > 50 % repression

TTCACCCCTGTGCCCGGCCTTCC (double strand) [TL9820 site]
activity [34]: > 80 % repression

CCCACAGGCGCCCTGG (double strand) [TL11088 site]
activity [35]: > 50 % repression

GACAGAGGCAGTGCTGG (double strand) [TL11130 site]
activity [36]: > 50 % repression

GCAGATCCCACAGGCGC (double strand) [TL11875 site]
activity [37]: > 80 % repression

TCTGTCACTCTCGCCCAC (double strand) [pAL040 site]
activity [38]: > 80 % repression

CCTCCCCCAGCACTGCC (double strand) [TL11133 site]
activity [39]: > 80 % repression

GGTCTCTGGGCCTTCA (double strand) [TL8214 site]
activity [40]: > 80 % repression

GCCGTTCTGCTGGTCTCT (double strand) [TL8220 site]
activity [41]: > 80 % repression

TTTGCTCTGTCTGCTC (double strand) [TL9717 site]
activity [42]: > 80 % repression

TGGTGGGGCTGCTCC (double strand) [pAL043 site]
activity [43]: > 80 % repression

GGCCAGGGCGCCTGT (double strand) [TL11084 site]
activity [44]: > 50 % repression

CCCCCAGCACTGCCTCT (double strand) [TL11131 site]
activity [45]: > 50 % repression

GGTGGGGCTGCTCCAGG (double strand) [TL11094 site]
activity [46]: > 80 % repression

GGGACAGTTTCCCTTC (double strand) [TL11108 site]
activity [47]: > 80 % repression

GCCGTTCTGCTGGTCT (double strand) [TL8222 site]
activity [48]: > 80 % repression

TCTGCTGGTCTCTGGGCC (double strand) [TL8216 site]
activity [49]: > 80 % repression
